Results taken from PMC12136220.
“And” between values parts separate entries of the source, which are not always exact repeats. Identical values can stand only once.

What was measured:
[1] = target: human recombinant Hsp60 (human) (UniProt P10809)
[2] = target: Listeria adhesion protein (LAP) (Listeria monocytogenes); experiment: cryo-EM structure; LAP alone, 1.2 mg/ml, Titan Krios 300 kV with K3 detector, cryoSPARC
[3] = target: human recombinant Hsp60 (human) (UniProt P10809); remark: listed apart in the source
[4] = target: Listeria adhesion protein (LAP) (Listeria monocytogenes); experiment: cryo-EM structure; purified LAP mixed with Hsp60 at 2:1, incubated 4 h at 4°C; Titan Krios 300 kV with K3 detector, cryoSPARC; LAP-Hsp60 map refined in C1, Hsp60 alone in C7, LAP dimer in C2

Sequence of human recombinant Hsp60 (human) (P10809 27-573): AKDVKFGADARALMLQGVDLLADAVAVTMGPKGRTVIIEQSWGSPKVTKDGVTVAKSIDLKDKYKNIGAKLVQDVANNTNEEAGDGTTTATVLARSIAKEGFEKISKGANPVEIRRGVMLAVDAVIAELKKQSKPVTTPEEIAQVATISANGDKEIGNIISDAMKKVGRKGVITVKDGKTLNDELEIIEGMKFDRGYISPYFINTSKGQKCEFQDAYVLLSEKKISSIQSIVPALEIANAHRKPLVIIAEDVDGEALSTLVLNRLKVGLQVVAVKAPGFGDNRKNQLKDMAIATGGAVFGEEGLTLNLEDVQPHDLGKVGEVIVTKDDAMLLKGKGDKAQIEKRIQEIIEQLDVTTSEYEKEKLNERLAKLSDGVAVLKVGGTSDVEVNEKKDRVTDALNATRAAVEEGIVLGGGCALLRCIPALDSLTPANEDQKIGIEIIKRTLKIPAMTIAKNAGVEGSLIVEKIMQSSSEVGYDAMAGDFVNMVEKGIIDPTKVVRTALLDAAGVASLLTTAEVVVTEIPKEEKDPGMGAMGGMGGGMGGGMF

## Listeria adhesion protein (LAP) (natural protein)
[1]
  FD4 (FITC 4-kDa dextran) permeability through Caco-2 monolayers after 1 h, LAP 0.01-5 μg/mL: 80%
[2]
  stoichiometry N: 2 and 4
[3]
  FD4 paracellular flux through Caco-2 monolayers in 1 h, relative to PBS control: 264%
[4]
  stoichiometry N: 4 and 2

## N1 subdomain of LAP (domain or fragment)
[3]
  FD4 paracellular flux through Caco-2 monolayers in 1 h, relative to PBS control: 133%
  decrease of TEER of Caco-2 monolayers in 1 h, relative to full-length LAP (100%): 78%

## N2 subdomain of LAP (domain or fragment)
[3]
  FD4 paracellular flux through Caco-2 monolayers in 1 h, relative to PBS control: 149%
  decrease of TEER of Caco-2 monolayers in 1 h, relative to full-length LAP (100%): 96%
